From publication PMC9482650, “Quantitative fragmentomics allow affinity mapping of interactomes” (Nature Communications, 2022)

Key:
Experiment in all cases: holdup assay
Set-up in all cases: key: below the threshold = too weak to quantify, mostly under pKd 3.1 to 4
GORASP1, Q9BQQ3 = molecular target: GORASP1, Q9BQQ3
NHERF3_4, Q5T2W1 = molecular target: T1, NHERF3_4, Q5T2W1
T1 sequence (Q5T2W1 373-468, limits assumed, looked up): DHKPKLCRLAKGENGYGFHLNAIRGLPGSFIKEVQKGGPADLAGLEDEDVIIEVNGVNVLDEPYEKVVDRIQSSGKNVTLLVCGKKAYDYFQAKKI

FRMPD2_2, Q68DX3 = molecular target: FRMPD2_2, Q68DX3
PDZD7_3, Q9H5P4 = molecular target: T2, PDZD7_3, Q9H5P4
T2 sequence (Q9H5P4 857-944, limits assumed, looked up): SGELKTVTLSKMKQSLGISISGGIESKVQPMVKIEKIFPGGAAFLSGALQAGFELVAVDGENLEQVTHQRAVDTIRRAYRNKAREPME

LNX1_3, Q8TBB1 = molecular target: LNX1_3, Q8TBB1
LIN7B, Q9HAP6 = molecular target: T3, LIN7B, Q9HAP6
T3 sequence (Q9HAP6 88-185, limits assumed, looked up): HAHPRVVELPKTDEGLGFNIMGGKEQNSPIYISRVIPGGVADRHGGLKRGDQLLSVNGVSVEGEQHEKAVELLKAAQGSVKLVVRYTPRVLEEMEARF

MAGI2_4, Q86UL8 = molecular target: MAGI2_4, Q86UL8
FRMPD2_1, Q68DX3 = molecular target: FRMPD2_1, Q68DX3
MPP6, Q9NZW5 = molecular target: T4, MPP6, Q9NZW5
T4 sequence (Q9NZW5 125-219, limits assumed, looked up): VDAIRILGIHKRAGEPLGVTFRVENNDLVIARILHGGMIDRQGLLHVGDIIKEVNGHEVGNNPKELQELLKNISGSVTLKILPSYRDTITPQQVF

GIPC2, Q8TF65 = molecular target: GIPC2, Q8TF65
MPP7, Q5T2T1 = molecular target: T5, MPP7, Q5T2T1
T5 sequence (Q5T2T1 134-230, limits assumed, looked up): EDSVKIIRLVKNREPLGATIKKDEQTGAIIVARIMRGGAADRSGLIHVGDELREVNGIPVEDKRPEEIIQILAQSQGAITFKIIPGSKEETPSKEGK

DLG4_3, P78352 = molecular target: DLG4_3, P78352
PDZD2_2, O15018 = molecular target: T6, PDZD2_2, O15018
T6 sequence (O15018 329-429, limits assumed, looked up): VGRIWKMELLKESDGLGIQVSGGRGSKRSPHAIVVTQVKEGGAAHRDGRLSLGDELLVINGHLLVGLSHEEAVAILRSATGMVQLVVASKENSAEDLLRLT

GRIP2_7, Q9C0E4 = molecular target: GRIP2_7, Q9C0E4
GRIP1_3, Q9Y3R0 = molecular target: T7, GRIP1_3, Q9Y3R0
T7 sequence (Q9Y3R0 247-346, limits assumed, looked up): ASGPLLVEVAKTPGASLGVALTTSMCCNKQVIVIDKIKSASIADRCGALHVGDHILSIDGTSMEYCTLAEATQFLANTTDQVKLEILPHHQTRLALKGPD

PCLO, Q9Y6V0 = molecular target: T8, PCLO, Q9Y6V0
T8 sequence (Q9Y6V0 4491-4600, limits assumed, looked up): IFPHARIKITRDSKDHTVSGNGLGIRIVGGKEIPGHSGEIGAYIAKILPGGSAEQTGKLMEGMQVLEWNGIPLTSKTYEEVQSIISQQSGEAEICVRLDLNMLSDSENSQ

GRIP2_6, Q9C0E4 = molecular target: GRIP2_6, Q9C0E4
Inadl_2, Q8NI35 = molecular target: Inadl_2, Q8NI35
LNX1_1, Q8TBB1 = molecular target: LNX1_1, Q8TBB1
CASK, O14936 = molecular target: CASK, O14936
GRIP1_4, Q9Y3R0 = molecular target: T9, GRIP1_4, Q9Y3R0
T9 sequence (Q9Y3R0 467-571, limits assumed, looked up): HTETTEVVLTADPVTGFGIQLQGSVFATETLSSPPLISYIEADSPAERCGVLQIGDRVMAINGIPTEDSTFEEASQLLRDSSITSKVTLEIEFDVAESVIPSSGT

RADIL, Q96JH8 = molecular target: T10, RADIL, Q96JH8
T10 sequence (Q96JH8 971-1071, limits assumed, looked up): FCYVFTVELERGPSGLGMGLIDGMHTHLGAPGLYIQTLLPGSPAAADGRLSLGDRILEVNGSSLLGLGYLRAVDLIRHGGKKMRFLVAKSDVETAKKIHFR

APBA1_2, Q02410 = molecular target: T11, APBA1_2, Q02410
T11 sequence (Q02410 742-832, limits assumed, looked up): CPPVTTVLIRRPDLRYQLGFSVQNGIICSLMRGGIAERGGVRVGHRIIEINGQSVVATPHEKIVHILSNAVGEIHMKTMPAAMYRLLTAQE

MAGI1_2, Q96QZ7 = molecular target: MAGI1_2, Q96QZ7
LAP2, Q96RT1 = molecular target: LAP2, Q96RT1
FRMPD2_3, Q68DX3 = molecular target: FRMPD2_3, Q68DX3
DLG1_1, Q12959 = molecular target: DLG1_1, Q12959
[1] = plain residues with an end cap or a label only (N-terminal biotin on a linker: ttds)
[2] = plain residues with an end cap or a label only (N-terminal biotin on a linker: ahx)
[3] = plain residues with an end cap or a label only (N-terminal biotin on a linker: ado-ado)

Chain of FRMPD2_3, Q68DX3 (Q68DX3 1073-1166): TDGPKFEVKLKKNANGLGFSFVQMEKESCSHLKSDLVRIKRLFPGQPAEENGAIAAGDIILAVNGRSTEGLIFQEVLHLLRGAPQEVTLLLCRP
Chain of CASK, O14936 (O14936 487-570): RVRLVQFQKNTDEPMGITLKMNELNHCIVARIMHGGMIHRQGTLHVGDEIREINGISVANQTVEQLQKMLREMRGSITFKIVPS
Chain of Inadl_2, Q8NI35 (Q8NI35 238-335): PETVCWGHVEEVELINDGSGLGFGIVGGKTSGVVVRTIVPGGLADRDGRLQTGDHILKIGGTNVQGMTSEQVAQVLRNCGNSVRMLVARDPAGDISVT
Chain of FRMPD2_2, Q68DX3 (Q68DX3 944-1038): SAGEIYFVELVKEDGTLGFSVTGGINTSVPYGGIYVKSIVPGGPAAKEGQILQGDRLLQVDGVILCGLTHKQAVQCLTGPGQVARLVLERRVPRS
Chain of LAP2, Q96RT1 (Q96RT1 other isoform, or with tags, fused parts or gaps): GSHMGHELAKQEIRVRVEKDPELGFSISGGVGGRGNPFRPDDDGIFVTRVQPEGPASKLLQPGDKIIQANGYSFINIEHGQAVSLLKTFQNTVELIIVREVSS
Chain of GORASP1, Q9BQQ3 (Q9BQQ3 1-208): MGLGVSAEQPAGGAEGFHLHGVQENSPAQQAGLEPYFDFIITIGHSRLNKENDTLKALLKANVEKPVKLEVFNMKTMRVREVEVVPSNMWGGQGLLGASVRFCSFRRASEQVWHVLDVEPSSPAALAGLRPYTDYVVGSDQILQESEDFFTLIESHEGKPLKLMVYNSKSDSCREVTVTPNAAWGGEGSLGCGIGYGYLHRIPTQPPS
Chain of GRIP2_7, Q9C0E4 (Q9C0E4 934-1023): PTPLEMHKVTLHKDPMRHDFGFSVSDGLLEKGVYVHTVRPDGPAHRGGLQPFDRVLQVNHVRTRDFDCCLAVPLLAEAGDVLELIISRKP
Chain of FRMPD2_1, Q68DX3 (Q68DX3 770-861): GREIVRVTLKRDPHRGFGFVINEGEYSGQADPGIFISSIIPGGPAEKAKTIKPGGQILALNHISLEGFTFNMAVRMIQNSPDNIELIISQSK
Chain of MAGI1_2, Q96QZ7 (Q96QZ7 456-580): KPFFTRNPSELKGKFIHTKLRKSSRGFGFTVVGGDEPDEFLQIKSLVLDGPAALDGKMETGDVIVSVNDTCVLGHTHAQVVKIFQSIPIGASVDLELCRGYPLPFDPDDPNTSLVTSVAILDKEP
Chain of GRIP2_6, Q9C0E4 (Q9C0E4 648-740): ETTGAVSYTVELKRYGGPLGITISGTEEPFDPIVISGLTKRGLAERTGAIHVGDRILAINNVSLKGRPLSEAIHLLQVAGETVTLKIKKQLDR
Chain of LNX1_3, Q8TBB1 (Q8TBB1 500-596): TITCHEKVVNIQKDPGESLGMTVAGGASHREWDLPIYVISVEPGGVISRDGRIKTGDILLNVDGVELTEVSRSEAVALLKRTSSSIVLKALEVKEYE
Chain of LNX1_1, Q8TBB1 (Q8TBB1 261-371): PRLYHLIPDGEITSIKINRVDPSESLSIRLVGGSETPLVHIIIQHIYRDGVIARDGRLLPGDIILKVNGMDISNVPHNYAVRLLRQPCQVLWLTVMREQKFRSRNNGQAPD
Chain of GIPC2, Q8TF65 (Q8TF65 112-203): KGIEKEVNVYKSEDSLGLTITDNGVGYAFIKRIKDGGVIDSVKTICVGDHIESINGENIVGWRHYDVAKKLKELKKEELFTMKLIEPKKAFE
Chain of MAGI2_4, Q86UL8 (Q86UL8 772-865): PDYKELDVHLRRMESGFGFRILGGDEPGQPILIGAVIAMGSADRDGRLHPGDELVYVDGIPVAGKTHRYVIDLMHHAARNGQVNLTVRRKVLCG
Chain of DLG4_3, P78352 (P78352 306-403): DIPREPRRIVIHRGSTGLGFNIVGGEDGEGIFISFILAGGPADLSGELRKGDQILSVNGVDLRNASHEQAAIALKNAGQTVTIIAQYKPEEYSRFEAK

## SEKHFRETEV [HTLV1-TAX1, P03409]
GORASP1, Q9BQQ3; [1]
  pKd: below the threshold
NHERF3_4, Q5T2W1; [1]
  pKd: below the threshold
FRMPD2_2, Q68DX3; [1]
  pKd: below the threshold
PDZD7_3, Q9H5P4; [1]
  pKd: 4.82
LNX1_3, Q8TBB1; [1]
  pKd: 3.64
LIN7B, Q9HAP6; [1]
  pKd: 3.83
MAGI2_4, Q86UL8; [1]
  pKd: 4.49
FRMPD2_1, Q68DX3; [1]
  pKd: 3.75
MPP6, Q9NZW5; [1]
  pKd: below the threshold
GIPC2, Q8TF65; [1]
  pKd: 3.82
MPP7, Q5T2T1; [1]
  pKd: below the threshold
DLG4_3, P78352; [1]
  pKd: 5.34
PDZD2_2, O15018; [1]
  pKd: 4.44
GRIP2_7, Q9C0E4; [1]
  pKd: 3.75
GRIP1_3, Q9Y3R0; [1]
  pKd: below the threshold
PCLO, Q9Y6V0; [1]
  pKd: below the threshold
GRIP2_6, Q9C0E4; [1]
  pKd: below the threshold
Inadl_2, Q8NI35; [1]
  pKd: below the threshold
LNX1_1, Q8TBB1; [1]
  pKd: 3.89
CASK, O14936; [1]
  pKd: below the threshold
GRIP1_4, Q9Y3R0; [1]
  pKd: below the threshold
RADIL, Q96JH8; [1]
  pKd: below the threshold
APBA1_2, Q02410; [1]
  pKd: 3.56
MAGI1_2, Q96QZ7; [1]
  pKd: 4.45
LAP2, Q96RT1; [1]
  pKd: 4.99
FRMPD2_3, Q68DX3; [1]
  pKd: 3.77
DLG1_1, Q12959; [1]
  pKd: 5.19

## EKLSSIESDV [GRIN2B, Q13224]
GORASP1, Q9BQQ3; [2]
  pKd: below the threshold
NHERF3_4, Q5T2W1; [2]
  pKd: below the threshold
FRMPD2_2, Q68DX3; [2]
  pKd: 3.91
PDZD7_3, Q9H5P4; [2]
  pKd: 3.77
LNX1_3, Q8TBB1; [2]
  pKd: below the threshold
LIN7B, Q9HAP6; [2]
  pKd: below the threshold
MAGI2_4, Q86UL8; [2]
  pKd: 3.61
FRMPD2_1, Q68DX3; [2]
  pKd: below the threshold
MPP6, Q9NZW5; [2]
  pKd: below the threshold
GIPC2, Q8TF65; [2]
  pKd: 4.33
MPP7, Q5T2T1; [2]
  pKd: below the threshold
DLG4_3, P78352; [2]
  pKd: below the threshold
PDZD2_2, O15018; [2]
  pKd: 4.82
GRIP2_7, Q9C0E4; [2]
  pKd: 3.53
GRIP1_3, Q9Y3R0; [2]
  pKd: below the threshold
PCLO, Q9Y6V0; [2]
  pKd: below the threshold
GRIP2_6, Q9C0E4; [2]
  pKd: below the threshold
Inadl_2, Q8NI35; [2]
  pKd: below the threshold
LNX1_1, Q8TBB1; [2]
  pKd: 4.13
CASK, O14936; [2]
  pKd: below the threshold
GRIP1_4, Q9Y3R0; [2]
  pKd: below the threshold
RADIL, Q96JH8; [2]
  pKd: below the threshold
APBA1_2, Q02410; [2]
  pKd: below the threshold
MAGI1_2, Q96QZ7; [2]
  pKd: below the threshold
LAP2, Q96RT1; [2]
  pKd: 4.26
FRMPD2_3, Q68DX3; [2]
  pKd: below the threshold
DLG1_1, Q12959; [2]
  pKd: 4.3

## HIVEALETDV [PBK, Q96KB5]
GORASP1, Q9BQQ3; [1]
  pKd: below the threshold
NHERF3_4, Q5T2W1; [1]
  pKd: below the threshold
FRMPD2_2, Q68DX3; [1]
  pKd: 4.66
PDZD7_3, Q9H5P4; [1]
  pKd: 4.6
LNX1_3, Q8TBB1; [1]
  pKd: below the threshold
LIN7B, Q9HAP6; [1]
  pKd: below the threshold
MAGI2_4, Q86UL8; [1]
  pKd: 4.4
FRMPD2_1, Q68DX3; [1]
  pKd: below the threshold
MPP6, Q9NZW5; [1]
  pKd: below the threshold
GIPC2, Q8TF65; [1]
  pKd: 4.55
MPP7, Q5T2T1; [1]
  pKd: below the threshold
DLG4_3, P78352; [1]
  pKd: below the threshold
PDZD2_2, O15018; [1]
  pKd: 4.84
GRIP2_7, Q9C0E4; [1]
  pKd: 3.91
GRIP1_3, Q9Y3R0; [1]
  pKd: below the threshold
PCLO, Q9Y6V0; [1]
  pKd: below the threshold
GRIP2_6, Q9C0E4; [1]
  pKd: below the threshold
Inadl_2, Q8NI35; [1]
  pKd: below the threshold
LNX1_1, Q8TBB1; [1]
  pKd: 4.51
CASK, O14936; [1]
  pKd: below the threshold
GRIP1_4, Q9Y3R0; [1]
  pKd: below the threshold
RADIL, Q96JH8; [1]
  pKd: below the threshold
APBA1_2, Q02410; [1]
  pKd: 4.27
MAGI1_2, Q96QZ7; [1]
  pKd: below the threshold
LAP2, Q96RT1; [1]
  pKd: 5.04
FRMPD2_3, Q68DX3; [1]
  pKd: below the threshold
DLG1_1, Q12959; [1]
  pKd: 5.01

## SVVSERISSV [HTR2C, P28335]
GORASP1, Q9BQQ3; [3]
  pKd: below the threshold
NHERF3_4, Q5T2W1; [3]
  pKd: below the threshold
FRMPD2_2, Q68DX3; [3]
  pKd: 4.25
PDZD7_3, Q9H5P4; [3]
  pKd: 4.26
LNX1_3, Q8TBB1; [3]
  pKd: below the threshold
LIN7B, Q9HAP6; [3]
  pKd: 3.7
MAGI2_4, Q86UL8; [3]
  pKd: below the threshold
FRMPD2_1, Q68DX3; [3]
  pKd: below the threshold
MPP6, Q9NZW5; [3]
  pKd: below the threshold
GIPC2, Q8TF65; [3]
  pKd: below the threshold
MPP7, Q5T2T1; [3]
  pKd: below the threshold
DLG4_3, P78352; [3]
  pKd: below the threshold
PDZD2_2, O15018; [3]
  pKd: 5.56
GRIP2_7, Q9C0E4; [3]
  pKd: below the threshold
GRIP1_3, Q9Y3R0; [3]
  pKd: below the threshold
PCLO, Q9Y6V0; [3]
  pKd: below the threshold
GRIP2_6, Q9C0E4; [3]
  pKd: below the threshold
Inadl_2, Q8NI35; [3]
  pKd: below the threshold
LNX1_1, Q8TBB1; [3]
  pKd: below the threshold
CASK, O14936; [3]
  pKd: below the threshold
GRIP1_4, Q9Y3R0; [3]
  pKd: below the threshold
RADIL, Q96JH8; [3]
  pKd: 3.74
APBA1_2, Q02410; [3]
  pKd: 3.87
MAGI1_2, Q96QZ7; [3]
  pKd: below the threshold
LAP2, Q96RT1; [3]
  pKd: below the threshold
FRMPD2_3, Q68DX3; [3]
  pKd: below the threshold
DLG1_1, Q12959; [3]
  pKd: 4.07

## MERLRVETDV [ARHGEF16, Q5VV41]
GORASP1, Q9BQQ3; [1]
  pKd: below the threshold
NHERF3_4, Q5T2W1; [1]
  pKd: below the threshold
FRMPD2_2, Q68DX3; [1]
  pKd: 3.74
PDZD7_3, Q9H5P4; [1]
  pKd: 4.08
LNX1_3, Q8TBB1; [1]
  pKd: below the threshold
LIN7B, Q9HAP6; [1]
  pKd: below the threshold
MAGI2_4, Q86UL8; [1]
  pKd: 3.99
FRMPD2_1, Q68DX3; [1]
  pKd: 3.79
MPP6, Q9NZW5; [1]
  pKd: below the threshold
GIPC2, Q8TF65; [1]
  pKd: 3.75
MPP7, Q5T2T1; [1]
  pKd: 3.54
DLG4_3, P78352; [1]
  pKd: below the threshold
PDZD2_2, O15018; [1]
  pKd: 4.33
GRIP2_7, Q9C0E4; [1]
  pKd: 3.64
GRIP1_3, Q9Y3R0; [1]
  pKd: below the threshold
PCLO, Q9Y6V0; [1]
  pKd: below the threshold
GRIP2_6, Q9C0E4; [1]
  pKd: below the threshold
Inadl_2, Q8NI35; [1]
  pKd: below the threshold
LNX1_1, Q8TBB1; [1]
  pKd: 4.03
CASK, O14936; [1]
  pKd: below the threshold
GRIP1_4, Q9Y3R0; [1]
  pKd: below the threshold
RADIL, Q96JH8; [1]
  pKd: below the threshold
APBA1_2, Q02410; [1]
  pKd: 3.86
MAGI1_2, Q96QZ7; [1]
  pKd: 3.9
LAP2, Q96RT1; [1]
  pKd: 4.39
FRMPD2_3, Q68DX3; [1]
  pKd: below the threshold
DLG1_1, Q12959; [1]
  pKd: 5.01
